Results taken from the DeepSol protein solubility set.

Test: soluble on expression in E. coli; label from the status in PepcDB or PDB records

Sequence | soluble on expression in E. coli
MKTRITELLKIDYPIFQGGMAWVADGDLAGAVSKAGGLGIIGGGNAPKEVVKANIDKIKSLTDKPFGVNIMLLSPFVEDIVDLVIEEGVKVVTTGAGNPSKYMERFHEAGIIVIPVVPSVALAKRMEKIGADAVIAEGMEAGGHIGKLTTMTLVRQVATAISIPVIAAGGIADGEGAAAGFMLGAEAVQVGTRFVVAKESNAHPNYKEKILKARDIDTTISAQHFGHAVRAIKNQLTRDFELAEKDAFKQEDPDLEIFEQMGAGALAKAVVHGDVDGGSVMAGQIAGLVSKEETAEEILKDLYYGAAKKIQEEASRWTGVVRNDLEHHHHHH | soluble
MKTSDIHDVAIVGAGPAGLSAAYELIRTGFTPLVLERTPAVGDVWRNHYDGLRLNSGRFFSALPGSKFPLSAGGWPSRDEVVSLLETFPARGGFTVQTGIEVEKVSHDRERDIWLITSNDNRQFESRAVVIAAGANRIPIIPEWEGKNTFTGTIIHSSQFKSAQDYAGKHVLVVGSGNSAAEIASRLAKYADSVTMSVRTPPQILPKSIYGIPLIGIGVWTRYLPRALVDGLLNFLRRTMIGDLSVYGLPSPTISMSKQYAINNVVPILYGPFIDDVRSGRIKIVGPVQKISGGTVEVLSTVESALNGDQATTTLQPDIIVAGTGFRTGFPELIQVPGITDEKGRSKISGDQEFKGAPRLYFIGQINPLSGQLREIRLEAGRIARKLDKQLRAKLEHHHHHH | soluble
MKTTGAGQLGTQLGKIKTSLRQQIHTGVVSQGQKLPSERELSELFSTTRITIKDALVSLETEGLIYREERRGWYVSPERICYNPLSRSHFHQMIREQHRIAATQLISVRSEMAAGDYAKALDIEQMTPIHIIERLRCIDGRAVLFVENVLKASLFDGILAENLTMSLTGIYREKYGYETMRSRFDVIPTSAPAHVAKALNLAEGQPVLKICRVNYKQDGELMDCELEYWRPDAVMIRIDSVG | not soluble
MKTVLAFGDSLTWGADPATGLRHPVEHRWPDVLEAELAGKAKVHPEGLGGRTTCYDDHAGPACRNGARALEVALSCHMPLDLVIIMLGTNDIKPVHGGRAEAAVSGMRRLAQIVETFIYKPREAVPKLLIVAPPPCVAGPGGEPAGGRDIEQS | not soluble
MKTVRIETFGCKVNQYESEYMAEQLEKAGYVVLPDGNAAYYIVNSCAVTKEVEKKVKRLIKSIRNRNKNAKIILTGCFAQLSPDEAKNLPVDMVLGIDEKKHIVDHINSLNGKQQVVVSEPGRPVYEKVKGSFEDRTRSYIKVEDGCDNTCTYCAIRLARGTRIRSKPLEIFKEEFAEMVMKGYKEIVITGVNLGKYGKDMGSSLAELLKVIEKVPGDYRVRLSSINVEDVNDEIVKAFKRNPRLCPHLHISVQSGSDDVLKRMGRKYKISDFMRVVDKLRSIDPDFSITTDIIVGFPGETDADFQRTLELVEKVEFSRVHIFRFSPRPGTPASRMEGGVPESKKKERLDVLKEKAKDVSIRYRKRIIGKERKVLAEWYVMKGVLSGYDEYYVKHEFVGNRVGEFHSVRVKSLSEEGVISCRADMVEGKVPARGLEHHHHHH | soluble
MKTYYEQDANVGLLQGKTVAVIGYGSQGHAQAQNLRDSGVEVVVGVRPGKSFEVAKADGFEVMSVSEAVRTAQVVQMLLPDEQQAHVYKAEVEENLREGQMLLFSHGFNIHFGQINPPSYVDVAMVAPKSPGHLVRRVFQEGNGVPALVAVHQDATGTALHVALAYAKGVGCTRAGVIETTFQEETETDLFGEQAVLCGGVTALVKAGFETLTEGGYRPEIAYFECLHELKLIVDLMYEGGLTNMRHSISDTAEFGDYVTGSRIVTDETKKEMKRVLTEIQQGEFAKKWILENQAGRPTYNAMKKAEQNHQLEKVGEELREMMSWIHAPKELVKK | not soluble
MKVAICDDNPTLTEKINTMLFNYNPNIFETYTYYNPLKLVNQLDQENFDFFILDIEMSEMSGIDLAKKIRERDILSPIVFLTSYKEYMEEVFQVQTFDYLLKPPTEDRLHQVLEKLRQQLEKKRNYFVFSSNKVTYKIPTKDIIYFEKDKRQVLIHTVGEIYKPYMSTNQINEQLDTNFVQVHSSFIINCAYIKELGKNFLLMDSKEKCIEIPISRRFKAAAHKSIVMSMRGKI | not soluble
MKVCKFEKMKEEDEIRQVINYILKEHPYVVVVPTLTQLQEWLQDISISWFHEEDSASHTTINNIEEYCCTLADHLITDLPLNTDIKKYIRECIEKMHKLVEDKADLLIDKIIKAEIYRLSGELFACCLRQHGLNARTLDTGTFMQMNLERKPDIPYIQESIRQYINENRDTDIFIAPLSLCKNVYGEIDFMNEKRNDYYATVLASIFEADEIILSTELTNIYANRNCAREQHSLTYTEAEQLINSGVHLIYTDCITLAARSNIVIRLIDTHDLETERLYISSHDTESSVKAIIVQDSVTFVRFTSLNVLPGYLLMGKLLEVINKYQINVISMASSNVSVSMILTASRDTLRIIQRELHKYTEMVVDENMSVIHIIGSLHWERTQLESNIMETIRHIPISLISYGGSDHCFTISVHTADKKQLLNSLSQRFLERLSALEHHHHHH | not soluble
MKVDVEVLRNFEERLNPAKPENIKIIGYGEISTVFELPELPGIALKRIPNFKSVEQVKRYIEVYFEYIELLEGAGLRVPDSDATFVERRDGKTVLYIAQKMVGNVGNKVIQTAKADEAEEVFGRVLAEMKKVWDFNAERREEGLEIGIDGQISNWAIMEEIYYFDTSTPMIRKNGIHQLDTEVFLQACPPGIRILLKKIFLQDILDRYFDFRKVVVDMIANLYKEGREDLIPIAINLANEFFKLNGYDFEAITAKEVEKYYKEDAFIWSLYLNLRKVHRFILTKALFGRYEYILPGKIRR | not soluble
MKVEELAESISSYAVGILKEEGIEELFPPQAEAVEKVFSGKNLLLAMPTAAGKTLLAEMAMVREAIKGGKSLYVVPLRALAGEKYESFKKWEKIGLRIGISTGDYESRDEHLGDCDIIVTTSEKADSLIRNRASWIKAVSCLVVDEIHLLDSEKRGATLEILVTKMRRMNKALRVIGLSATAPNVTEIAEWLDADYYVSDWRPVPLVEGVLCEGTLELFDGAFSTSRRVKFEELVEECVAENGGVLVFESTRRGAEKTAVKLSAITAKYVENEGLEKAILEENEGEMSRKLAECVRKGAAFHHAGLLNGQRRVVEDAFRRGNIKVVVATPTLAAGVNLPARRVIVRSLYRFDGYSKRIKVSEYKQMAGRAGRPGMDERGEAIIIVGKRDREIAVKRYIFGEPERITSKLGVETHLRFHSLSIICDGYAKTLEELEDFFADTFFFKQNEISLSYELERVVRQLENWGMVVEAAHLAPTKLGSLVSRLYIDPLTGFIFHDVLSRMELSDIGALHLICRTPDMERLTVRKTDSWVEEEAFRLRKELSYYPSDFSVEYDWFLSEVKTALCLKDWIEEKDEDEICAKYGIAPGDLRRIVETAEWLSNAMNRIAEEVGNTSVSGLTERIKHGVKEELLELVRIRHIGRVRARKLYNAGIRNAEDIVRHREKVASLIGRGIAERVVEGISVKSLNPESAAALEHHHHHH | soluble
MKVELQISETYEEEKLIVQAPQETEKVQKVIEFAENLDQREKIKGKIDDQVYLVEIGKIQRFYIENRKVLAETASQTYSIDLRLYQVLKLLPTNFIQISQSEIINIDSISHLKLTPNGLVEIFLKNESFTYSSRRYLKTIKEKLEL | not soluble
MKVGFFLLKFPLSSETFVLNQITAFIDMGFEVEIVALQKGDTQNTHVAWTKYNLAARTRWLQDEPTGKVAKLRHRASQTLRGIHRKNTWQALNLKRYGAESWNLILSAICGQVATPFRADVFIAHFGPAGVTAAKLRELGVIHGKIATIFHGIDISSREVLNHYTPEYQQLFRRGDLMLPISDLWAGRLQKMGCPREKIAVSRMGVDMTRFSPRPVKAPATPLEIISVARLTEKKGLHVAIEACRQLKEQGVAFRYRILGIGPWERRLRTLIEQYQLEDVVEMPGFKPSHEVKAMLDDADVFLLPSVTGADGDMEGIPVALMEAMAVGIPVVSTLHSGIPELVEADKSGWLVPENDARALAQRLAAFSQLDTDELAPVVKRAREKVEHDFNQQVINRELASLLQAL | not soluble
MKVLIGGYTKKTSKGIYELPFIGEDNEAHLEKAENIISVGGPTYFQKDGDLVFTINNAGDEGGISAFKLSDHGSNEIDRHLTPGASPAYIGINKEKKLLYTANYHTAVLSVFQYSNSGKLALVAQTTHKAESLGPRPEQVDGPHPHFFDETPAGNLVSCDLGNDTVDFYRLENNELKHLAQYKNEAGFGDRHIVFSKDGNYFYVVGELSSQINVVKFNENTWEFEDIATYKTIPEDFTEHNGAAALYITNDGKYIYNSNRGHNSITVFKVNDDHTLSLIQRISTFGDFPRDFNWDETQKYVVAANQNTDNATLYLRNGGNGTLTPIQTEIPVPEGTRVLFTKLEHHHHHH | not soluble
MKVMLSLFKRESIKGITMKKSTLLNSELSYLVATLGHTDEITICDAGLPIPDEVTRIDLALTHGVPSFLETVRVILSESQIESVIVAQEFAQVSPVLHEALYRELKAEEQLCGKPIAIQYISHEAFKQRTLQSRAVVRTGECTPYANVIFQAGVVF | not soluble
MKVYLHFSPQFFANTYLIGNEITKEAVIIDPAKITEKMIHQIEKNEFNLKAVLLTHDLEHPYETGLNTILKIYSPKVYAGSCFSENVTINTLRGDGCIDVAGYSVRYFAIPAHSSYSYMFQIENMVFTGTSLSAGMIGQTSNMYAERTLRNILKTKLMCFEDNLIIMPFYGPPTSIGVERKYNASFFQDLEHHHHHH | not soluble
MKVYYECAPCFLRQAREAIDLATDDEELKLRVMENILELLSERFRRGQVSNELGTRMHRLIKDMTGSEDPYLDEKRRCNEIALRFLPTVRDYLECHSDLESHVKVAITGNIIDFGALGLDFDHDRGIQESLRAPLTINHVPLLEDRLREASEVLYLLDNTGEILFDRPLIEKLAGYDVSVKVAVKGEPILNDACMEDALEAGLDEVAEIVTTGTDSVGIVYSDLSDEFRDMLDGTELVIAKGMGNYEGLTEISDGSRDIFCLLNAKCSAIARDLGVARGDNVAVKI | not soluble
MKWFRFPIAVIGLVLLSGCATQNESATQWLYPPMAVPLQASIQQEVQIARLSQLLQRTDLEPEIRAKMLFERGNYYDSVGLRDLARLDFTQSLSINPAQPDVFNLLGVYYTEAGEFDAAYESFDSTLELDPSNEYAVRNRAIALYYGERPQLALEEITKHYQQDPQDPFRALWLYIIESDIDPTKARTELLERYQQHDEQWGWVLVGLMLDQLSEEVAFKAIIAGSRENELLAQRLTEAYFYLGKRYQMQGELAHALSLYKLAISFNVYEYVEHRYAFLELGRIYQQAREEQLARAKAEAMTQ | not soluble
MKWKEQAIILGTRQYGETSVILEVMTRQHGRYMGVVKGGRSRRMAVLLQPGNFVEAEWWARLDEHLGLFRLEALDLHAARLILFPEALYALQLIVFHLHLLPERDPHPILYDILHLFMQSFDEPFINAELLVRFEMRFLEELGFGLDLSRCAATGRLEKLCYVSPKSGRAVCEEAGHPWREKLLNLPQFLVQRTVRPVDFSDIKNGFILTGFFLMRHVWEPRNIKQPSVRISLIQLFEQRFRMQASFVDLKTINRM | not soluble
MKYDLIIIGSGSVGAAAGYYATRAGLKVLMTDAHMPPHQQGSHHGDTRLIRHAYGEGEKYVPLVLRAQTLWDELSTHNEEPIFVRSGVVNLGPADSAFLANVARSAQQWQLNVERLDATALMTRWPEIRVPDNYIGLFEADSGFLRSELAITTWLRLAREAGCAQLFNSPVSHIHHDDNGVTIETSEGCYHASKALISAGTWVKALVPELPVQPVRKVFAWFKADGRYSTKNRFPAFTGEMPNGDQYYGFPAENDELKIGKHNGGQLIQAPEERKPFAAVASDGAEAFPFLRNVLPGIGGCLHGAACTYDNSPDEDFIIDTLPGHENTLVITGLSGHGFKFAPVLGEIAADFALGKTPSFDLTPFRLSRFSQ | not soluble
